From the nanobody polyreactivity screen of Harvey et al. (2022)

Assay: yeast display, Sf9 membrane polyspecificity reagent, FACS + sequencing; frameworks hold sequencing errors
Summary of the method: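 Nanobodies from a synthetic yeast display library (Saccharomyces cerevisiae BJ5465), induced 36–48 hours with galactose, were stained 1 hour at 4 °C with 10% biotinylated, detergent-solubilized Sf9 membrane reagent, enriched on streptavidin microbeads, then FACS-sorted. Anti-HA (expression) and streptavidin (reagent binding) fluorescence set low and high (top ~1%) gates. Polyreactivity labels come from the gate of origin. Genes were colony-PCR amplified, MiSeq 2 × 250 sequenced and filtered by CDR length.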

Row | Sequence | polyreactivity (PSR sort gate)
1 | QDQLVESGGGLVQAGGSLRLSFAASGSTFANYAMVWYRQAPGKEREWVAAISFSTVSTYYADSVKGRFTISRDNAKNTVYIQMNSLKPEDTAVYYCNTYYYGSRPSEDYWGQGTQVTVSS | high polyreactivity
2 | QDQLVESGGGLVQAGGSLRLSFAASGSTFVRYAMVWYRQAPGKERELVAAISRSGGSTYYADSVKGRFTISRDNAKNTVYLQMNSLKPEDTAVYYCAARLVYSGRDRGYDYWGQGTQVTVSS | high polyreactivity
3 | QDQLVESGGGLVQAGGSLRLSFAASGSTFWYNDMGWYRQAPGKERELVASISWSGGDTYYADSVKGRFTISRDNAKNSVYLQMNSLKPEDTEVYYCAKGNNWISRLMDYWGQGTQVTVSS | low polyreactivity
4 | QDQLVESGGGLVQAGGSLRLSIAASVRIFYANAMGWYRQAPGQERELVAAISSGGSTYYADSVKGRFTISRDNAKNTVYLQMNSLKPEDTAVFYCAVYTHKKVRPEYDYWGQGTQVTVSS | low polyreactivity
5 | QDQLVESGGGLVQAGGSLSLICAASGFNFALYAMGWYRQAPGKERELVAAINWSGGRTYYADSVKGRFTISRDNAKNTVYLQMNSLKPEDTAVYYCNRRAFSPYAANYYYWGQGTQVTVSS | high polyreactivity
6 | QDQLVESGGGLVQAGGSLSLSCAASGRTFAVYAMGWYRQAPGKEMELVAAITQSGGSTYYADSVKGRFTISRDNAKNTVYLQINSMKPEDTAVYYCAKTGRFPYTAGQSFGYDYWGQGTQVTVSS | low polyreactivity
7 | QDQLVESGGGLVQAGGTLRLSCAASGRIFPYNAMGWYRQAPGKERQLVAAISKSGVRTYYADSVKGRFTISRDNAKNTVYLQMNSLNPEETAVYYCAKLSPYGGDVGASEGPEYDYWGQGTQVTVSS | high polyreactivity
8 | QDQLVESGGGLVQAGGTLRLSCAASGSTFARYAMGWYRQAPGKERELVAAISRRGGSTYYADSVKGRFTISRDNAKITVDLQMNSLKPEDTAVYSCAARYGIISYLEYDYWGQGTQVTVSS | high polyreactivity
9 | QDQLVESGGGLVQAGVSLRLSCAASGSIFNRNAMGWYRQAPGKERELVADISWSGGSTYYADSVKGRFTISRDNAKNTVYLQMNSLKPEDTAVYYCADKSTGRWWRAGYDYWGQGTQVTVSS | high polyreactivity
10 | QDQLVESGGGLVQAGVSLRLSCPASGYNFDYYVMGWYRQAPGKERELVAAISSSGGSTYYADSVKGRFTISRDNAKNTVYLQMNSLKPEDTAVYYCATKPYPYYLYYYWGQGTQVTVSS | high polyreactivity
11 | QDQLVESGGGLVQARGSLRLRCAASGFIFIFNAMGWYRPAPGKERELVAAIDTSDDSTYYADSVKGRFTISRDNGKNTVYLQLNSLKPEDTAVYYCAAEELSNYEYWGQGTQVTVSS | low polyreactivity
12 | QDQLVESGGGLVQARGSLRLSSAATGSIFGTKAKGWYRQATGKEKEYDAAIDYSGSITRYADSVKGRFTISRDLSKNTVYLKMNSLKPEDTAVYYCAARSYAKDWGGYNYWGQGTQGTVSS | high polyreactivity
13 | QDQLVESGGGLVQPGGSLRLSCAASGSTFANYAMGWYRQAPGNERQLVAALDHSGGSTYYADSVKGRFTISRDNAKNPVYLQMNSLKPEDTAVYYCNVVNGWLDVSSPDDSLAYLYDYWGQGSQVTVSS | low polyreactivity
14 | QDQLVESGGGLVQSGGSLLLSCAPSGSTFVWYAMGWYRQERGKEMEFDATISWSDGSTYYADSVKGRFTISRDNPKNTVYLQMNILKPEDTAVYYCAAEQYGYYYSLWEYDNIWEGYWGPGTQVTVSS | low polyreactivity
15 | QDQLVESGGGSVQAGGSLRLSCAAYGRIYILYAMGWYRQAPGQERELVAAISWSGGSTYYADSVKGRFTISRDNAKKTVDGQRNSLKPEYTAVYYCNVVSKYKHTYDFDYWGQGTQVNVSS | high polyreactivity
16 | QDQLVESGGGVVQAGGSLRLSCAASGRIVGSKASGVSIEAPRKESEFVAAISSCSRTYYADSVKGLFSISRDNAKNTVYLQMNSLKPEDTAVYYCAKRGYFYSHRHGYEYGGQGTQVTVSS | high polyreactivity
17 | QDQLVESGGGVVQAGGSLRLSCDASGFIFYRYAMGWSRQAPGKERELLAAISRSGGSTYYADSVKRRFTISRDNAKYTVYLQLKSLKPEDTAVYYCATTGQRNLYLVNYSGQGTQVTVSS | low polyreactivity
18 | QDQLVESGGRLVQAVGSLRLSCAASGRIFTDYTMGWYRQAHGKERELVAAISYSGGSTYYADSVKGRFTISRDNAKNTVYLQMNSLKPEDTAVYYCNKDYYVHDGYGYWGQGTQVTVSS | low polyreactivity
19 | QDQLVESGGSLVQAGGSLRLSCASSGSIFKGNVMGCYRQAPGKERELVAAITWSAGSTYYADSVKGRFTISRDNAKNTVYLQMNRLKPEDTAVYYCNTDRYHGVDFDYWGQGTQVSVSS | high polyreactivity
20 | QDQLVESGGVLVQAGGSLRLSCAASGSTFYYYAMGWYRQAPRKEREFVSSISSRRTSTYYADSVKGRLTISRDNAKNNVYLQMNSLKREDTAVYYCADTQYRSDGWRYDYWGQGTQVTVSS | high polyreactivity

Row | Sequence | polyreactivity (PSR sort gate)
21 | QDQLVESGGVLVQARGSLRLSCAASASTLPGYAMGWYRQAPGKERELVAAISSSGTSTYYADSVKGRFTISRDNAKNTVYLQMNSLKPEDTAVYYCAAEGYRWVTAYYDYDEDYWGQGTQVTVSS | low polyreactivity
22 | QDQLVESGRGLVQAGGSLRLSCAASGNTFYRYTMGWYRQAPGNERELVDAISGRGGSTTYADSVKGRFTISRDPAKNTVYLQMKSLIPEDTAVYYCAAVTGGTAYYASTYYYWGQGTQVTVSL | high polyreactivity
23 | QDQLVESGVGLDQAGGSLRLSCAASGRIFRGSAMGWFSQAPGKEREFVAAITKNGGSTYYADSVNARFTISRDNANNTVYVQMNSLKPEDTAVYDCAVRAWDPDTGNSDYWGQGTQGTVSS | low polyreactivity
24 | QDQLVESGVGLVQAGGSLRLSCAASGYIFLLYDMGWYRQAPGKEREMVATITSGGGTYYADSVKGRVTISRDNAKNTVYLQMNSLIPEDTAVYYCNADLYRWTGRSYWDKHGSWGQGTQVTVSS | low polyreactivity
25 | QDQLVESRGGLVQAGGSLRLSCAASGRTFYINAMGWYRQAPGKERELVAAISWGGGRTYYADSVKGRFTISRDNAKNTVYLQMNSLKPEDTAVYYCAAEVAYYKYDYWGQGTQVTVSS | high polyreactivity
26 | QDQLVESRGGLVQAGGSLRLSCAASGSIFTVNAMGWYRQAPRKERELVASITWRSGSTYYPDSVKGRFTISRDNAKNSVYLQMNRLKPEDTAFYYCNADSDYPYYPGNFDYWGQGTQVTVSS | low polyreactivity
27 | QDQLVESRGGLVQAGGSLRLSCAAYGRTFIPYAMGWNSQATGKERELVAAITVRGSSTYYADSVKGRFTISRDNAKNTVYFQMNSLKPEDTAIYYCATDRRYRAFYYWGQGTQVTVSS | high polyreactivity
28 | QDQLVESRGGLVQAGGSLSISCAASGFTFRYYAMGWYRQAPGKERELVAGISWRGGSTNYADSVKGRFTISRDNAKNTVYFQMNSLNPDDSEVYSCNAVSYSFPILRVRPTWYDYWGQGTQVTVSS | high polyreactivity
29 | QDQLVESVGGLNQAGGSLRLSCAASGIIFYPYTIGWYRQAPGKERELVAAIRQSGTSTYYADSVKGRFTISRDNAKNTVYLQMNSLKPEDTAVYYCNVEPYQPPGHDRSYAYDYWGQGTQVTVSS | low polyreactivity
30 | QDQLVESVGGLVQAGCSLRLSSAASVSIFVIYAMGWYRQAPGNERELVAAISWNGGSTFYADSVKGRITISRDNAKNTVYLQMNSQKPEDTAVYYCNTVASYYRWKSYYYWGQGTQVTVSS | high polyreactivity
31 | QDQLVESVGGLVQAGGSLPLSSAASGLTFKRNAMRWYSQAPGKERELVAAIRYSTDSTNYADSVKGRFTISRDNAKNTVYCQMNSLKPESTAVYYCAKDKQDYEYWGQGTQVTVSS | low polyreactivity
32 | QDQLVESVGGLVQAGGSLRLSCAASAITFGNYAMGWYRQAPGKERELVAGISWSGSSTYYADSVKGRFTISRDNSKNTVYLQMNSLKPEDTAVYYCNAVQPARFVGGFGTGVDYWGQGTQVTVSS | high polyreactivity
33 | QDQLVESVGGLVQAGGSLRLSCAASGLTISQNAMGWYRQAPGKERELVAAITRSGSTTHYADSVKWRFTISRDNAKNTVYLQMNSLKPEDTAVYYCAAAHSYYGHYYYWGQGTQVTVSS | high polyreactivity
34 | QDQLVESVGGLVQAGGSLRLSCAASGRIFWVNAMGWSRQAPGKERELVAAISWTSGSTYYADSVKGRFTISRDNAKNTVYLQMNSLKPEDTAVYYCNKVQSGEYDYWGQGTQVTVSS | high polyreactivity
35 | QDQLVESVGGLVQAGGSLRLSCAASGSTIVRNAMGWYRQPPGKERELVAAISVDSGSTYYADSVKGRFTISRDNAKNTVYLQMNSLKPEDTAVYYCAADGTRGQEYDYWGQGTLVTVSS | low polyreactivity
36 | QDQLVESVGGLVQAGGSLRLSCAASVRIFYWNAIGWYRQATGKESELVATITRGDRTYYADSVKGRFTISRDNAKNTVYLQMNSLKPEDTAVYYCARSSNPYFYGMYYWGQGTQVTVSS | high polyreactivity
37 | QDQLVESVGGLVQAGVSLPLSCAASGIIFLYNDMGWFRQARGKAREFVATLSRSGGSTYYADSVKGRVTISRDNAKNTVYLQMNRLKPEETAVYYCAADEDSGYGYWGQGTQVTVTS | low polyreactivity
38 | QDQLVESWGALVQAGGRLRLICAASGTIFSRNTMRSYRQAPGKDRELVAGISSSGSRTYYADSVKGRFTISRDNAKNTVYLQMNSLKPEDNAVYYCAAEHQRSRGRRYYIGYDYWGQGTQVTVSS | low polyreactivity
39 | QDQLVETGGGLVQAGGSLRLSCSASGSIFAAYTMGWYRQAPGKECELVATISSGGSTYYADSVKGRFTISRDNAKNTVYLQMNSLKPEDTAVYYCAAVAYTYTEYEYWGQGTQVTVSS | low polyreactivity
40 | QDQLVQSGGGIVQAGGSLRLSCAASGSTFILYAMGWYRQAPGKESELVAAISTSGGSTYYADSVKGRVTISRDNAKNTVYFHMNSLKPDDTAVYYCIAGLSVTHGTSIPFRKYEYWGQGTQVNVSS | low polyreactivity
